Data on nine molecules can be found in publication PMC5505701, “Somatostatin binds to the human amyloid β peptide and favors the formation of distinct oligomers” (eLife, 2017).

In test [1] the test system is oligomeric Aβ1-42 (oAβ1-42-biotin bait). Description: Affinity capture interactome Experiment II (C-terminally tethered oAβ1-42-biotin vs biotin). The note with it: enrichment relative to biotin-only negative control; human frontal lobe digitonin extract; TMT; pH 8.0, 4°C overnight.
The subject of test [2] is oligomeric versus monomeric Aβ1-42 (Aβ1-42-biotin bait). The experiment in a line: Affinity capture interactome Experiment III (oAβ1-42-biotin vs mAβ1-42-biotin). The note with it: oligomeric versus monomeric bait; human frontal lobe digitonin extract; TMT; pH 8.0, 4°C overnight.

B1: Ubiquitin carboxyl-terminal hydrolase L1: human brain protein (protein, UniProt P09936 1-220, looked up)
Ubiquitin carboxyl-terminal …: MQLKPMEINPEMLNKVLSRLGVAGQWRFVDVLGLEEESLGSVPAPACALLLLFPLTAQHENFRKKQIEELKGQEVSPKVYFMKQTIGNSCGTIGLIHAVANNQDKLGFEDGSVLKQFLSETEKMSPEDRAKCFEKNEAIQAAHDAVAQEGQCRVDDKVNFHFILFNNVDGHLYELDGRMPFPVNHGASSEDTLLKDAAKVCREFTEREQGEVRFSAVALC
Turning to B1, the “Experiment II oAβ1-42-B/B Ratio” value in test [1] was 1.87. Besides, the “Experiment III oAβ1-42-B/mAβ1-42-B Ratio” value in test [2] turned out to be 1.39.

B2: Tryptophanyl-tRNA synthetase, cytoplasmic: human brain protein (protein, UniProt P23381 2-471, looked up)
Tryptophan--tRNA ligase, …: PNSEPASLLELFNSIATQGELVRSLKAGNASKDEIDSAVKMLVSLKMSYKAAAGEDYKADCPPGNPAPTSNHGPDATEAEEDFVDPWTVQTSSAKGIDYDKLIVRFGSSKIDKELINRIERATGQRPHHFLRRGIFFSHRDMNQVLDAYENKKPFYLYTGRGPSSEAMHVGHLIPFIFTKWLQDVFNVPLVIQMTDDEKYLWKDLTLDQAYSYAVENAKDIIACGFDINKTFIFSDLDYMGMSSGFYKNVVKIQKHVTFNQVKGIFGFTDSDCIGKISFPAIQAAPSFSNSFPQIFRDRTDIQCLIPCAIDQDPYFRMTRDVAPRIGYPKPALLHSTFFPALQGAQTKMSASDPNSSIFLTDTAKQIKTKVNKHAFSGGRDTIEEHRQFGGNCDVDVSFMYLTFFLEDDDKLEQIRKDYTSGAMLTGELKKALIEVLQPLIAEHQARRKEVTDEIVKEFMTPRKLSFDFQ
For B2, the “Experiment III oAβ1-42-B/mAβ1-42-B Ratio” value in test [2] came out at 3.97.

B3: ATP synthase subunit gamma, mitochondrial: human brain protein (protein, UniProt P36542 26-298, looked up)
ATP synthase F(1) complex …: ATLKDITRRLKSIKNIQKITKSMKMVAAAKYARAERELKPARIYGLGSLALYEKADIKGPEDKKKHLLIGVSSDRGLCGAIHSSIAKQMKSEVATLTAAGKEVMLVGIGDKIRGILYRTHSDQFLVAFKEVGRKPPTFGDASVIALELLNSGYEFDEGSIIFNKFRSVISYKTEEKPIFSLNTVASADSMSIYDDIDADVLQNYQEYNLANIIYYSLKESTTSEQSARMTAMDNASKNASEMIDKLTLTFNRTRQAVITKELIEIISGAAALD
As to B3, the “Experiment III oAβ1-42-B/mAβ1-42-B Ratio” value in test [2] came to 3.29.

B4: Medium-chain specific acyl-CoA dehydrogenase: human brain protein (protein, UniProt P11310 26-421, looked up)
Medium-chain specific …: KANRQREPGLGFSFEFTEQQKEFQATARKFAREEIIPVAAEYDKTGEYPVPLIRRAWELGLMNTHIPENCGGLGLGTFDACLISEELAYGCTGVQTAIEGNSLGQMPIIIAGNDQQKKKYLGRMTEEPLMCAYCVTEPGAGSDVAGIKTKAEKKGDEYIINGQKMWITNGGKANWYFLLARSDPDPKAPANKAFTGFIVEADTPGIQIGRKELNMGQRCSDTRGIVFEDVKVPKENVLIGDGAGFKVAMGAFDKTRPVVAAGAVGLAQRALDEATKYALERKTFGKLLVEHQAISFMLAEMAMKVELARMSYQRAAWEVDSGRRNTYYASIAKAFAGDIANQLATDAVQILGGNGFNTEYPVEKLMRDAKIYQIYEGTSQIQRLIVAREHIDKYKN
Regarding B4, the “Experiment III oAβ1-42-B/mAβ1-42-B Ratio” value in test [2] was determined as 1.82.

B5: Dihydropyrimidinase-related protein 5: human brain protein (protein, UniProt Q9BPU6 1-564, looked up)
Dihydropyrimidinase-related …: MLANSASVRILIKGGKVVNDDCTHEADVYIENGIIQQVGRELMIPGGAKVIDATGKLVIPGGIDTSTHFHQTFMNATCVDDFYHGTKAALVGGTTMIIGHVLPDKETSLVDAYEKCRGLADPKVCCDYALHVGITWWAPKVKAEMETLVREKGVNSFQMFMTYKDLYMLRDSELYQVLHACKDIGAIARVHAENGELVAEGAKEALDLGITGPEGIEISRPEELEAEATHRVITIANRTHCPIYLVNVSSISAGDVIAAAKMQGKVVLAETTTAHATLTGLHYYHQDWSHAAAYVTVPPLRLDTNTSTYLMSLLANDTLNIVASDHRPFTTKQKAMGKEDFTKIPHGVSGVQDRMSVIWERGVVGGKMDENRFVAVTSSNAAKLLNLYPRKGRIIPGADADVVVWDPEATKTISASTQVQGGDFNLYENMRCHGVPLVTISRGRVVYENGVFMCAEGTGKFCPLRSFPDTVYKKLVQREKTLKVRGVDRTPYLGDVAVVVHPGKKEMGTPLADTPTRPVTRHGGMRDLHESSFSLSGSQIDDHVPKRASARILAPPGGRSSGIW
Consider B5, for which the “Experiment III oAβ1-42-B/mAβ1-42-B Ratio” value in test [2] is 3.79.

B6: Cytosolic acyl CoA thioester hydrolase: human brain protein (protein, UniProt O00154 1-380, looked up)
Cytosolic acyl coenzyme A …: MKLLARALRLCEFGRQASSRRLVAGQGCVGPRRGCCAPVQVVGPRADLPPCGACITGRIMRPDDANVAGNVHGGTILKMIEEAGAIISTRHCNSQNGERCVAALARVERTDFLSPMCIGEVAHVSAEITYTSKHSVEVQVNVMSENILTGAKKLTNKATLWYVPLSLKNVDKVLEVPPVVYSRQEQEEEGRKRYEAQKLERMETKWRNGDIVQPVLNPEPNTVSYSQSSLIHLVGPSDCTLHGFVHGGVTMKLMDEVAGIVAARHCKTNIVTASVDAINFHDKIRKGCVITISGRMTFTSNKSMEIEVLVDADPVVDSSQKRYRAASAFFTYVSLSQEGRSLPVPQLVPETEDEKKRFEEGKGRYLQMKAKRQGHAEPQP
For the molecule B6, the “Experiment III oAβ1-42-B/mAβ1-42-B Ratio” value in test [2] turned out to be 4.03.

B7: Mu-crystallin homolog: human brain protein (protein, UniProt Q14894 1-314, looked up)
Ketimine reductase …: MSRVPAFLSAAEVEEHLRSSSLLIPPLETALANFSSGPEGGVMQPVRTVVPVTKHRGYLGVMPAYSAAEDALTTKLVTFYEDRGITSVVPSHQATVLLFEPSNGTLLAVMDGNVITAKRTAAVSAIATKFLKPPSSEVLCILGAGVQAYSHYEIFTEQFSFKEVRIWNRTKENAEKFADTVQGEVRVCSSVQEAVAGADVIITVTLATEPILFGEWVKPGAHINAVGASRPDWRELDDELMKEAVLYVDSQEAALKESGDVLLSGAEIFAELGEVIKGVKPAHCEKTTVFKSLGMAVEDTVAAKLIYDSWSSGK
Consider B7, for which, in test [2], the “Experiment III oAβ1-42-B/mAβ1-42-B Ratio” value was 2.41.

B8: NAD-dependent deacetylase sirtuin-2: human brain protein (protein, UniProt Q8IXJ6 2-389, looked up)
NAD-dependent protein …: AEPDPSHPLETQAGKVQEAQDSDSDSEGGAAGGEADMDFLRNLFSQTLSLGSQKERLLDELTLEGVARYMQSERCRRVICLVGAGISTSAGIPDFRSPSTGLYDNLEKYHLPYPEAIFEISYFKKHPEPFFALAKELYPGQFKPTICHYFMRLLKDKGLLLRCYTQNIDTLERIAGLEQEDLVEAHGTFYTSHCVSASCRHEYPLSWMKEKIFSEVTPKCEDCQSLVKPDIVFFGESLPARFFSCMQSDFLKVDLLLVMGTSLQVQPFASLISKAPLSTPRLLINKEKAGQSDPFLGMIMGLGGGMDFDSKKAYRDVAWLGECDQGCLALAELLGWKKELEDLVRREHASIDAQSGAGVPNPSTSASPKKSPPPAKDEARTTEREKPQ
Consider B8, for which, in test [2], the “Experiment III oAβ1-42-B/mAβ1-42-B Ratio” value amounted to 2.58.

B9: Centractin, beta: human brain protein (protein, UniProt P42025 1-376, looked up)
Beta-centractin: MESYDIIANQPVVIDNGSGVIKAGFAGDQIPKYCFPNYVGRPKHMRVMAGALEGDLFIGPKAEEHRGLLTIRYPMEHGVVRDWNDMERIWQYVYSKDQLQTFSEEHPVLLTEAPLNPSKNREKAAEVFFETFNVPALFISMQAVLSLYATGRTTGVVLDSGDGVTHAVPIYEGFAMPHSIMRVDIAGRDVSRYLRLLLRKEGVDFHTSAEFEVVRTIKERACYLSINPQKDEALETEKVQYTLPDGSTLDVGPARFRAPELLFQPDLVGDESEGLHEVVAFAIHKSDMDLRRTLFANIVLSGGSTLFKGFGDRLLSEVKKLAPKDIKIKISAPQERLYSTWIGGSILASLDTFKKMWVSKKEYEEDGSRAIHRKTF
Turning to B9, the “Experiment III oAβ1-42-B/mAβ1-42-B Ratio” value in test [2] was found to be 3.25.
